Assay results from patent publication US20190284289A1 (Eli Lilly, published 2019).

Key:
rat RANKL = target: T1, rat RANKL (rat, UniProt Q9ESE2 141-318, limits assumed); experiment: SPR (BIAcore 2000), antibody captured on Protein A, RANKL as analyte, 25 C; rat RANKL
T1 construct: Construct not described
T1 sequence (looked up): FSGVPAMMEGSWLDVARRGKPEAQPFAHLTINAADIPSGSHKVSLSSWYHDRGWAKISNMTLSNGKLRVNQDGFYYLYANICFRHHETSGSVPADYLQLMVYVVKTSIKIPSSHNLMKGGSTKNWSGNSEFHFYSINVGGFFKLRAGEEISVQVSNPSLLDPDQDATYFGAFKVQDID

human RANKL [1] = target: T2, human RANKL (human, UniProt O14788 158-317, limits assumed); experiment: cell-based or functional assay
T2 sequence: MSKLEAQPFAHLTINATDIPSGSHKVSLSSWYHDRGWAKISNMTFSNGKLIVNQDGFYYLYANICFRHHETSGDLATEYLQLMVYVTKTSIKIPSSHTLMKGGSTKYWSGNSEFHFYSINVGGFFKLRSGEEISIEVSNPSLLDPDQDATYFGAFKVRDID

human RANKL [2] = target: T2, human RANKL; experiment: SPR (BIAcore 2000), antibody captured on Protein A, RANKL as analyte, 25 C; human RANKL
Procedure: The BIAcore® 2000 instrument is used to measure binding affinity. All measurements are performed at 25° C. 2 ug/mL of exemplified antibody of Example 1 is dissolved in HBS-EP buffer (150 mM sodium chloride, 3 mM EDTA, 0.005% (w/v) surfactant P-20, and 10 mM HEPES, pH7.4). Protein A is immobilized on flow cells 1 to 4 of a CM4 sensor chip at a level of 500 response units (Rus) using an amine coupling kit.
Binding is evaluated using multiple analytical cycles. Each cycle is performed at a flow rate of 20 uL/minute. About 10 uL of the exemplified antibody of Example 1, at a concentration of 2 ug/mL, is injected, aiming to capture about 100-200Rus; 250 uL of human RANKL (starting at 5 nM and using two-fold serial dilutions for each cycle) is injected, ten minutes is given for dissociation, and 10 uL of 10 mM glycine hydrochloride, pH 1.5 is used for regeneration. Association and dissociation rates for each cycle are evaluated using a “1:1 with mass transfer” binding model in the BIAevaluation software.

mouse RANKL = target: T3, mouse RANKL (mouse, UniProt O35235 158-316, limits assumed); experiment: SPR (BIAcore 2000), antibody captured on Protein A, RANKL as analyte, 25 C; mouse RANKL
T3 construct: Construct not described; also called murine RANKL
T3 sequence (looked up): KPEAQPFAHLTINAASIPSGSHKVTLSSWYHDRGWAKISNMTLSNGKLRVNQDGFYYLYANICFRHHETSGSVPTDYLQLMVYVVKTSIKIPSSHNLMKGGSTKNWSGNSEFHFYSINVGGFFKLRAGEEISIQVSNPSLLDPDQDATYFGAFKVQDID

Kd (rat RANKL): 0.0344 nM | IC50, neutralization of human RANKL induced NF-kB driven luciferase luminescence in HEK293 cells expressing human RANK (human RANKL [1]): 0.069 nM | Kd (human RANKL [2]): 0.00282 nM | Kd (mouse RANKL): 0.00664 nM
B1: exemplified antibody of Example 1 (antibody, human IgG4 S228P, kappa, F234A L235A, V domains shown)
VH: QVQLVQSGAEVKKPGSSVKVSCKASGYAFTNYYIEWVRQAPGQGLEWMGVINPGWGDTNYNEKFKGRVTITADKSTSTAYMELSSLRSEDTAVYYCARRDTAHGYYALDPWGQGTTVTVSS
VL: DIQMTQSPSSLSASVGDRVTITCKASQNVGTNVAWYQQKPGKAPKLLIYSASYRYSGVPSRFSGSGSGTDFTLTISSLQPEDFATYYCQQYWDYPLTFGGGTKVEIKR
notes: also called the antibody; anti-RANKL antibody
